In US20250282852A1:

Legend:
[1] = biological target: biotinylated oligomeric Aβ1-42 (UniProt P05067); assay: Octet biolayer interferometry, biotinylated oligomeric Aβ on streptavidin biosensor, hCD22-His in solution
[2] = biological target: biotinylated oligomeric Aβ1-42 (UniProt P05067); assay: Octet 96e (printed as 'SPR system'), biotinylated oligomeric Aβ1-42 on streptavidin biosensor, CD22 extracellular domain at various concentrations in solution

extracellular domain of CD22 (Sino Biological) (receptor)
koff [1]: 0.000522 s⁻¹ | kon [1]: 186000 M⁻¹ s⁻¹ | Kd [2]: 2.79 nM
